Laboratory results taken from article PMC5291270.

Legend:
Flag-SA1 WT [1] = target: T1, Flag-SA1 WT (UniProt Q8WVM7); experiment: AFM; conditions: scale: % of SA1 bound at same locations as telomeric region
T1 sequence: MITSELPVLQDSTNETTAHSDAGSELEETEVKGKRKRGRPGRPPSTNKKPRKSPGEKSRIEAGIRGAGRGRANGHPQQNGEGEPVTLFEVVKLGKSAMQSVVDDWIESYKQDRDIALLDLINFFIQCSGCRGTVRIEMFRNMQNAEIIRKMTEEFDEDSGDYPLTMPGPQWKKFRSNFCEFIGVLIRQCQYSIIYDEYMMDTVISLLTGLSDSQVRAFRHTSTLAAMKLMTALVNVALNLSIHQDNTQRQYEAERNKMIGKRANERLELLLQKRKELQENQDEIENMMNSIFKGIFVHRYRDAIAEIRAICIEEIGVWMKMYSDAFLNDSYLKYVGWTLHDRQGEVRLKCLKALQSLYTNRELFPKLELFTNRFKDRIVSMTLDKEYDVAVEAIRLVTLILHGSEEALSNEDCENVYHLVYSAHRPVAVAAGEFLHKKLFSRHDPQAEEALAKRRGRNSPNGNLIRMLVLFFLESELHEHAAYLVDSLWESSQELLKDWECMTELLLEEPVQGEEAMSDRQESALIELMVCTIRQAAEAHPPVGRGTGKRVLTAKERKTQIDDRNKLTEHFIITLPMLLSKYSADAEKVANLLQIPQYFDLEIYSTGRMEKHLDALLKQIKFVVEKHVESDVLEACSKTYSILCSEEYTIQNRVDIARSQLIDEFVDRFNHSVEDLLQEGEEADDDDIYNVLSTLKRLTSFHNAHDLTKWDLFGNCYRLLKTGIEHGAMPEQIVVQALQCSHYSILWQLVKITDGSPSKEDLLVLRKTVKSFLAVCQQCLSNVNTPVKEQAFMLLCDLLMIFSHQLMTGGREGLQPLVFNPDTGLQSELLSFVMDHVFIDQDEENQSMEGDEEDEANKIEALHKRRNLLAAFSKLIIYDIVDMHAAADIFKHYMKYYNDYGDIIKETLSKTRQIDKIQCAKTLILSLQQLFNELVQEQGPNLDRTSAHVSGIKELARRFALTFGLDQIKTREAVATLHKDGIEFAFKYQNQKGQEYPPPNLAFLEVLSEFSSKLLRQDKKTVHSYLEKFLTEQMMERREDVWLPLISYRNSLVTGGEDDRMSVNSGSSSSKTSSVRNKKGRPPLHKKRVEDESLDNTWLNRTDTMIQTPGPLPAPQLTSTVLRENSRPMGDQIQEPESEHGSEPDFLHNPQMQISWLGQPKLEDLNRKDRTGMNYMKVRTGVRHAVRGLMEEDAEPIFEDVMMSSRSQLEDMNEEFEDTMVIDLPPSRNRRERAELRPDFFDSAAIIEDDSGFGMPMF

Flag-SA1 WT [2] = target: T2, Flag-SA1 WT (UniProt Q8WVM7 1-1258); experiment: fluorescence anisotropy
T2 sequence: T1 sequence

[3] = target: TRF1;SA1 (EMSA with TRF1) (human?;human?, UniProt P54274;Q8WVM7 1-439;1-1258, |); experiment: EMSA
TRF1;SA1 (EMSA with TRF1), sequence (P54274 whole entry, one chain of several): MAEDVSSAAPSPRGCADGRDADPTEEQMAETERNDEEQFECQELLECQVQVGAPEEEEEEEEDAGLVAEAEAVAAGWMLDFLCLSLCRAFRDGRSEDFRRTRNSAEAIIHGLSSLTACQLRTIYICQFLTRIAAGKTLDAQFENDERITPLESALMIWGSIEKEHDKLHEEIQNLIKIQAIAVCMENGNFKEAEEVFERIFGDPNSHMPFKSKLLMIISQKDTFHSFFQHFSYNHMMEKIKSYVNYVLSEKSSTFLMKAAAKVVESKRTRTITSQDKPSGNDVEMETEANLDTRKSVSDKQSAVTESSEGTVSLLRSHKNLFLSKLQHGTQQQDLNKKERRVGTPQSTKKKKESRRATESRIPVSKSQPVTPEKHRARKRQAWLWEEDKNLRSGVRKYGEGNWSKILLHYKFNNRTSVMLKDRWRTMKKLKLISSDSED

Question: How did the binding signal (Flag-SA1 WT [1]) turn out when genomic control DNA was run?
Answer: The binding signal was 27.

B1: Tel7 (7 TTAGGG repeats) (dsDNA)
DNA 1: CTGGATCCGTACTTAGGGTTAGGGTTAGGGTTAGGGTTAGGGTTAGGGTTAGGGACAAGAATTCGA
DNA 2: TCGAATTCTTGTCCCTAACCCTAACCCTAACCCTAACCCTAACCCTAACCCTAAGTACGGATCCAG
Question: B1 was tested. Which Kd (Flag-SA1 WT [2]) did it give?
Answer: Its Kd is 34 ± 5.8 nM.

B2: Scram (scrambled Tel7) (dsDNA)
DNA 1: CTGGATCCGTACAGTGTAAGGGTGAGTGGTTGGGTGTGTGGGTGTTGATGTAGAACAAGAATTCGA
DNA 2: TCGAATTCTTGTTCTACATCAACACCCACACACCCAACCACTCACCCTTACACTGTACGGATCCAG
Question: Which Kd (Flag-SA1 WT [2]) does the source give for B2 here?
Answer: The Kd was 104 ± 13.6 nM.

B3: 3x TTAGGG EMSA duplex (dsDNA)
DNA 1: TTAGGGTTAGGGTTAGGGATGTCCAGCAAGCCAGAATTCGGCAGCGTA
DNA 2: TACGCTGCCGAATTCTGGCTTGCTGGACATCCCTAACCCTAACCCTAA
Question: Does B3 bind [3]?
Answer: Result: binds
